Assay results from paper PMC3836730, “Molecular Cloning and Characterization of Taurocyamine Kinase from Clonorchis sinensis: A Candidate Chemotherapeutic Target” (PLoS Neglected Tropical Diseases, 2013).

B1: C. sinensis TK D1 (CsTK D1) (Clonorchis sinensis) (protein)
chain: MQVEPLKSLQQKIVNDEANRSFTKKHLTNRIVDLYADKKTSFGGSLAQCVSHNARNPRCILPRACDLDAYEAFREFFDAVIIDYHKVKGDKITHPKSDFGDLKSLNFKDLNADGNMVVSTRVRLGRTVAGYGFCPTISNEQRLELEKKISTALKDLSGEFKGTYYPLTGMKEEDRKKLVEKHFLFRDDDSVLRDAGGYIDWPNGRGIFINEKENFLVWVNEEDHIRVISMQKGGDLIAVYKRLANAISELGKSLTFATNDRFGFITFCPSNLGTTLRASVHARVPYLSALPNFEQICEKYNIQARGTHGEHTASVGGVYDLSNKRRLGLTEIEAVTEMYNGVQALLDLEKQLAAYNKDAP
notes: truncated N-terminal domain D1 (360 residues of the 717-residue two-domain protein, 40,573 Da); MBP fusion (pMAL-c2), E. coli TB1, amylose resin; about 80 kDa with MBP
B2: C. sinensis TK D2 (CsTK D2) (Clonorchis sinensis) (protein)
chain: AGVMPVEPLTYLSHLLEAADPVKNYTRKHLTPEIIKKYDGVRTTHGATLAHMVRNGAYNPHSICPRTGEAECYTKFVDYLDAVILDYHGVSDPAFKHPPPTFGDLNNLPFGDVDPEGKFVVSTRVRVGRSVDGFLFSTIMSKQDRLDLETKVSTALKSLTGDHAGSYYPLANMSEATRKQLVEDHFLFKNDDPVLRDAGGYRDWPHGRGIFHNANKTFLVWLCEEDHMRIISMQKGGDLAAVYKRLIQGIQAIEKTLPFAHSDKYGYITCCPSNLGTTMRASVLLKIPKLSAQKAKLDEVCAKYRLQARGLHGEHTESPEGIHDISNKRRLGLTELEAAKEMADGVAQMIAIEKSLP
notes: truncated C-terminal domain D2 (357 residues of the 717-residue two-domain protein, 39,719 Da); MBP fusion (pMAL-c2), E. coli TB1, amylose resin; about 80 kDa with MBP
B3: C. sinensis TK whole (CsTK D1D2) (Clonorchis sinensis) (protein)
chain: MQVEPLKSLQQKIVNDEANRSFTKKHLTNRIVDLYADKKTSFGGSLAQCVSHNARNPRCILPRACDLDAYEAFREFFDAVIIDYHKVKGDKITHPKSDFGDLKSLNFKDLNADGNMVVSTRVRLGRTVAGYGFCPTISNEQRLELEKKISTALKDLSGEFKGTYYPLTGMKEEDRKKLVEKHFLFRDDDSVLRDAGGYIDWPNGRGIFINEKENFLVWVNEEDHIRVISMQKGGDLIAVYKRLANAISELGKSLTFATNDRFGFITFCPSNLGTTLRASVHARVPYLSALPNFEQICEKYNIQARGTHGEHTASVGGVYDLSNKRRLGLTEIEAVTEMYNGVQALLDLEKQLAAYNKDAPAGVMPVEPLTYLSHLLEAADPVKNYTRKHLTPEIIKKYDGVRTTHGATLAHMVRNGAYNPHSICPRTGEAECYTKFVDYLDAVILDYHGVSDPAFKHPPPTFGDLNNLPFGDVDPEGKFVVSTRVRVGRSVDGFLFSTIMSKQDRLDLETKVSTALKSLTGDHAGSYYPLANMSEATRKQLVEDHFLFKNDDPVLRDAGGYRDWPHGRGIFHNANKTFLVWLCEEDHMRIISMQKGGDLAAVYKRLIQGIQAIEKTLPFAHSDKYGYITCCPSNLGTTMRASVLLKIPKLSAQKAKLDEVCAKYRLQARGLHGEHTESPEGIHDISNKRRLGLTELEAAKEMADGVAQMIAIEKSLP
notes: full-length contiguous two-domain enzyme, 717 residues, 80,274 Da; MBP fusion (pMAL-c2), E. coli TB1, amylose resin; 120 kDa with MBP

System: N=C(N)NCCS(=O)(=O)O
Assay: purified protein
Type: biochemical, Clonorchis sinensis
Settings: co-substrate ATP, Mg-acetate, Tris-HCl pH 8, 25°C

Which results are given for “C. sinensis TK D2 (CsTK D2) (Clonorchis sinensis; Y447R)”?
Km: 3010 ± 250 µM; kcat: 0.99 ± 0.52 s⁻¹; kcat/Km: 330 M⁻¹ s⁻¹

What does the source list for “C. sinensis TK whole (CsTK D1D2) (Clonorchis sinensis; R58A)”?
Km: 450 ± 190 µM; kcat: 15.00 ± 0.25 s⁻¹; kcat/Km: 33300 M⁻¹ s⁻¹

What does the source list for “C. sinensis TK D1 (CsTK D1) (Clonorchis sinensis; R58A)”?
Km: 850 ± 60 µM; kcat: 33.03 ± 1.14 s⁻¹; kcat/Km: 38900 M⁻¹ s⁻¹

What does the source list for “C. sinensis TK D2 (CsTK D2) (Clonorchis sinensis; I423A)”?
Km: 300 ± 50 µM; kcat: 6.46 ± 0.45 s⁻¹; kcat/Km: 21500 M⁻¹ s⁻¹

With “C. sinensis TK D1 (CsTK D1) (Clonorchis sinensis; Y84A)” as the molecule, how does the Km read?
Its Km is 820 ± 70 µM.

What about the kcat of the same molecule?
The kcat was 32.90 ± 1.54 s⁻¹.

What about the kcat/Km of the same molecule?
The kcat/Km was 40100 M⁻¹ s⁻¹.

How did the Km turn out when “C. sinensis TK D2 (CsTK D2) (Clonorchis sinensis; H421A)” was run?
Its Km is 360 ± 70 µM.

And the kcat?
Its kcat is 5.92 ± 1.23 s⁻¹.

What about the kcat/Km of the same molecule?
The kcat/Km was 15600 M⁻¹ s⁻¹.

For “C. sinensis TK D1 (CsTK D1) (Clonorchis sinensis; I60A)”, which Km is on record?
Its Km is 510 ± 70 µM.

What about the kcat of the same molecule?
Its kcat is 22.43 ± 0.38 s⁻¹.

And the kcat/Km?
The kcat/Km was 44000 M⁻¹ s⁻¹.

How did the Km turn out when “C. sinensis TK D2 (CsTK D2) (Clonorchis sinensis; Y447A)” was run?
The Km was 3640 ± 210 µM.

What about the kcat of the same molecule?
The kcat was 6.45 s⁻¹.

And the kcat/Km?
The kcat/Km was 1770 M⁻¹ s⁻¹.

Substrate: N=C(N)NCCS(=O)(=O)O
Assay: purified protein
Type: biochemical, Clonorchis sinensis
Settings: co-substrate ATP, Mg-acetate, Tris-HCl pH 8, 25°C
Remark: another data set of the same source

B1 was tested. Which Km did it give?
Its Km is 350 ± 10 µM.

And the kcat?
The kcat was 22.59 ± 0.15 s⁻¹.

And the kcat/Km?
Its kcat/Km is 54500 M⁻¹ s⁻¹.

With B2 as the molecule, how does the Km read?
The Km was 480 ± 50 µM.

What about the kcat of the same molecule?
The kcat was 4.50 ± 0.11 s⁻¹.

What about the kcat/Km of the same molecule?
The kcat/Km was 9380 M⁻¹ s⁻¹.

Which Km does the source give for B3 here?
The Km was 490 ± 20 µM.

What about the kcat of the same molecule?
Its kcat is 17.78 ± 0.98 s⁻¹.

And the kcat/Km?
The kcat/Km was 36300 M⁻¹ s⁻¹.

Substrate: Nc1ncnc2c1ncn2[C@@H]1O[C@H](COP(=O)(O)OP(=O)(O)OP(=O)(O)O)[C@@H](O)[C@H]1O
Assay: purified protein
Type: biochemical, Clonorchis sinensis
Settings: co-substrate taurocyamine, Mg-acetate, Tris-HCl pH 8, 25°C

What does the source list for B1?
Km: 460 ± 120 µM; kcat: 22.59 ± 0.15 s⁻¹

How did the Km turn out when B2 was run?
The Km was 750 ± 130 µM.

And the kcat?
The kcat was 4.50 ± 0.11 s⁻¹.

What does the source list for B3?
Km: 780 ± 70 µM; kcat: 17.78 ± 0.98 s⁻¹
